Measured values: publication PMC4908374, “A humanized anti-DLL4 antibody promotes dysfunctional angiogenesis and inhibits breast tumor growth” (Scientific Reports, 2016)
Several values for one entry are separate records, joined by “and”; a condition that tells them apart may be missing. Equal entries are not always repeated. One block for each binder: values may come before it.

Biological target: T1, rhDLL4 (recombinant human Delta-like 4) (Homo sapiens, UniProt Q9NR61)
T1 construct: Delta-like 4 (DLL4), human, recombinant
T1 sequence (Q9NR61 27-685, stated change not applied): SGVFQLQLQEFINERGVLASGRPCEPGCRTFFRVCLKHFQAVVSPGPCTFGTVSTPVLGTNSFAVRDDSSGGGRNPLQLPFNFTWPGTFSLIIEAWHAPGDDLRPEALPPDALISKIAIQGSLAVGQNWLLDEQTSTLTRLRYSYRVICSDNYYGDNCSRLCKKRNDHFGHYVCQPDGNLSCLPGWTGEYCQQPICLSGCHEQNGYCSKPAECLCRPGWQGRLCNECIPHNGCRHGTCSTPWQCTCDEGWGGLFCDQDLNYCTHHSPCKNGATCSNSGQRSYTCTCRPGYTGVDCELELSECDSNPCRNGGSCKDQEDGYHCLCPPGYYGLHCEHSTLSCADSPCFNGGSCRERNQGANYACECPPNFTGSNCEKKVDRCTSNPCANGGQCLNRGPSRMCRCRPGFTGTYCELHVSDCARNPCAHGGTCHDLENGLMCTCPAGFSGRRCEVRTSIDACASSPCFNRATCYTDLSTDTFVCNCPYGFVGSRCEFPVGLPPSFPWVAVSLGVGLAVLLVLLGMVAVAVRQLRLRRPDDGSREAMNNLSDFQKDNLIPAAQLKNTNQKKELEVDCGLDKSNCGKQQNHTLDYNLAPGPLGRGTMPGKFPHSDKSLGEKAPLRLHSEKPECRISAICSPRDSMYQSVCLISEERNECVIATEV
Assay: SPR; Biacore X100; HCLC or H3L2 captured (up to 2,000 RU) by anti-human IgG Fc antibody immobilised on a CM5 chip; rhDLL4 up to 100 nM flowed; 25 °C, 30 μl/min; 1:1 binding model; KD from kd/ka
Conditions: both partners purified

Kd: 2.26 pM
koff: 2.59e-05 s⁻¹
kon: 1.15e+07 M⁻¹ s⁻¹
B1: H3L2, humanized anti-DLL4 antibody (VH3, VL2) (antibody, V domains shown)
VH: QVQLVQSGAEVKKPGSSVKVSCKASGYTFSGYWMQWIKQAPGQGLEWIGAIYPGDGDTRYTQKFKGRATLTADKSTSTAYMELSSLRSEDTAVYYCAGGNFFFDYWGQGTLVTVSS
VL: EIVITQSPDFQSVTPKEKVTITCSVSSSISSSYLHWYQQKPDQSPKPWIYGTSNLASGVPSRFSGSGSGTDYTLTINSLEAEDAATYYCQQWSSSPLTFGQGTKLEIK
notes: Full-length IgG1; also called humanized antibody; source: CHO-s, transiently transfected, in supernatant

Kd: 1.14 pM and 1.41 pM
koff: 2.42e-05 s⁻¹
kon: 1.72e+07 M⁻¹ s⁻¹
B2: HCLC, murine-human chimeric anti-DLL4 antibody (VH and VL of MMGZ01 on human constant regions) (antibody, V domains shown)
VH: EVQLEESGTELARPGASVKLSCKASGYIFSGYWMQWIKQRPGQGLEWIGAIYPGDGDTRYTQKFKGKATLTADKSSSTAYMQLSSLASEDSAVYYCAGGNFFFDYWGLGTTLAVSS
VL: DIVITQSPALMAASPGEKVTITCSVSSSISSSYLHWYQQKSGISPKPWIYGTSNLASGVPARFSGSGSGTSYSLTITSMEAEDAATYYCQQWSSSPLTFGAGTKLELK
notes: as the VH of m6; as the VL of m6; Full-length IgG1; also called chimeric antibody; source: CHO-s, transiently transfected, in supernatant
